This assay deals with T1, anti-CD20 IgG1 L234S/L235T/G236R (human).
T1 construct: rituximab VH, as in m1; human IgG1 constant region; as the light chain of m1; also called 2–52; variant 52; source: HEK293, transient, purified (Protein A)
The assay is described as follows: SPR; antibody captured by biotin-labelled anti-human κ light chain on streptavidin CM5; soluble Fcγ receptor injected at one concentration (12.5 nM to 18 μM); HBS-EP+ pH 7.4, 25°C; Biacore 8K. The settings on record: both partners purified. In general terms: In SPR one partner is held on a chip, and binding of the other changes the refractive index at the surface.

B1: cynomolgus monkey FcγRI extracellular domain, C-terminal hexa-His (receptor)
chain: QVDTTKAVITLQPPWVSVFQEETVTLQCEVPRLPGSSSTQWFLNGTATQTSTPSYRITSASVKDSGEYRCQRGPSGRSDPIQLEIHRDWLLLQVSSRVFTEGEPLALRCHAWKDKLVYNVLYYQNGKAFKFFYRNSQLTILKTNISHNGAYHCSGMGKHRYTSAGVSVTVKELFPAPVLNASVTSPLLEGNLVTLSCETKLLLQRPGLQLYFSFYMGSKTLRGRNTSSEYQILTARREDSGFYWCEATTEDGNVLKRSPELELQVLGLQLPTPVWLH
For the molecule B1, the response is less than 1 RU.

B2: cynomolgus monkey FcγRIIb extracellular domain, C-terminal hexa-His (receptor)
chain: TPAAPPKAVLKLEPPWINVLREDSVTLTCGGAHSPDSDSTQWFHNGNLIPTHTQPSYRFKANNNDSGEYRCQTGRTSLSDPVHLTVLSEWLALQTPHLEFREGETIMLRCHSWKDKPLIKVTFFQNGKSKKFSHMDPNFSIPQANHSHSGDYHCTGNIGYTPYSSKPVTITVQVP
Regarding B2, the response was less than 1 RU.

B3: cynomolgus monkey FcγRIIa extracellular domain, C-terminal hexa-His (receptor)
chain: KAVLKLEPPWINVLREDSVTLTCGGAHSPDSDSTQWFHNGNLIPTHTQPSYRFKANNNDSGEYRCQTGRTSLSDPVHLTVLSEWLALQTTHLEFREGETIMLRCHSWKDKPLIKVAFFQNGKSKKFSHMNPNFSIPQANHSHSGDYHCTGNIGYTPYSSKPVTITVQGLSSLVPSVGSSSPTG
The molecule B3 yielded a response of less than 1 RU.
